In publication PMC10816986, “The Role of Key Amino Acids of the Human Fe(II)/2OG-Dependent Dioxygenase ALKBH3 in Structural Dynamics and Repair Activity toward Methylated DNA” (International Journal of Molecular Sciences, 2024):
Read-outs that look alike come from different tables or passages of the source.

How the values were obtained:
[1] = Equilibrium fluorescence titration with 2OG; format: binding; conditions: 1 µM apoprotein, 25 °C, read-out: Dissociation constant Kd, 2OG
Source text: To investigate the impact of selected mutations on ALKBH3’s ability to bind its cofactor, co-substrate, and methylated DNA, the fluorescent titration method was employed. It is well-established that enzyme–ligand binding typically leads to a protein conformational change, which in turn can alter the fluorescence intensity of tryptophan and tyrosine residues within the protein sequence. […] In this study, transitional metals (Fe(II), Ni(II), and Co(II)), 2OG, and the m3C substrate served as titrants. Protein fluorescence quenching was measured after the addition of an excess of the ligand to 1 µM of enzyme (Supplementary Figure S2). To determine the equilibrium dissociation constant’s Kd values, the resulting titration curves were analyzed using a non-linear regression algorithm (see Section 4.3 of “Materials and Methods” for details). […] As indicated by the data presented in Table 2, the stability of the wt ALKBH3 apoenzyme’s affinity to various ligands and damaged DNA generally corresponds to the stability of such complexes for AlkB and ALKBH2 enzymes. […] The binding of Ni(II) and Co(II) ions of similar radii was weakened by approximately two-fold. […] This behavior is more characteristic of the bacterial homolog AlkB rather than human ALKBH2 [7].
The intrinsic tryptophan fluorescence quenching was monitored at the maximum of emission (345 nm, in most cases) using an excitation wavelength of 280 nm, and 5 nm slits. An amount of 2 mM of (NH4)2Fe(SO4)2·6H2O, 2 mM of NiSO4×7H2O, 2 mM of CoSO4·7H2O, 2 mM of 2OG, or 100 µM of m3C substrate was titrated into 1 µM of apoprotein (a free enzyme with no metal or 2OG added) in the presence of 50 mM of HEPES-KOH (pH 7.8), 50 mM of KCl, and 10 mM of MgCl2. When titrating with DNA, the buffer was supplemented with 2 mM of EDTA. The dissociation constant Kd for a model of one-step binding (E + L ↔ EL) was determined using Equations (2)–(5) and a non-linear regression algorithm in the OriginPro 8.1 software (OriginLab Corp., Northampton, MA, USA):(2) Kd=E[L]/[EL] (3) F=f0+f1E+f2[EL] (4) e0=E+[EL] (5) l0=L+[EL] where F is the observed fluorescence intensity at any given ligand (L) concentration; f0 is the background fluorescence; f1 and f2 are partial fluorescence intensities of the free enzyme (E) and enzyme–ligand complex (EL), respectively; e0 and l0 are total concentrations of the enzyme and ligand.
Figure S2. Equilibrium binding of the wild-type and mutant ALKBH3 proteins to transition metals, 2OG, or m3C-containing DNA. The quenching of the enzyme ﬂuorescence is shown as a function of Fe(II) (A), Ni(II) (B), Co(II) (C), 2OG ( D), and single-stranded m3C substrate (E). The protein concentration was 1 µM. In the course of titration by Fe(II), a sodium ascorbate (1mM) was added to keep the metal in a reduced state. Experimental data points were ﬁtted to a single-site binding mode l (see “Materials and Methods”). Each trace represents the average of three technical […]
(1 picture or pasted object on this page, not shown here)

[2] = Far-UV CD spectroscopy, secondary structure content (BeStSel); format: physicochemical
Description: To assess the effect of key amino acid substitution on the ALKBH3’s secondary structure content circular CD spectra of each protein variant in the apo state were recorded in accordance with experimental conditions optimized in our previous study.
The secondary structure content was determined by processing experimental spectra using the […] (BeStSel, Budapest, Hungary) and CDSSTR (DichroWeb, London, UK) algorithms. […] A detailed description of the parameter optimization process for each algorithm is provided in our recent work. The BeStSel package was selected for further analysis as it provides more information regarding the structural organization of the protein. As follows from data summarized in Table 3, antiparallel β-strands predominate in the structure of the wild-type ALKBH3 (37.6%), with a considerable portion existing in right-twisted and relaxed conformations. The protein sequence also contains a significant number of loop motifs (12.6%) and poorly ordered structures (~44.7%), which may constitute the N-terminal domain. Only 5.2% of the amino acid sequence is composed of α-helices. Utilizing the protein architecture and topology prediction feature available in BeStSel, it was established that the obtained CD spectrum belongs (with a probability of 96%) to the class of β-proteins with a sandwich or β-barrel architecture. Such a distribution corresponds to the structure of ALKBH3 determined by X-ray crystallography for a truncated form of the enzyme lacking 69 amino acids from the N-terminus (PDB 2IUW). Specifically, the β7-β14 strands form two antiparallel sheets of a central “jellyroll” fold, which constitutes the catalytically active DSBH domain (Figure 1). Thus, the CD method we selected enabled us to determine the composition of the secondary structure of ALKBH3 with a high degree of precision.
Far-UV CD spectra from 185 to 280 nm were recorded using a J600 spectrometer (Jasco, Tokyo, Japan) in a 0.1 cm path lengths quartz cuvette (Starna Cells, CA, USA). In all cases, the protein sample (~50 nmol) was dialyzed two times against the CD buffer containing 10 mM of Potassium Phosphate (pH 7.8) and 50 mM of (NH4)2SO4. […] Data were corrected for a baseline by subtraction of the buffer spectrum and expressed as mean residue ellipticity [θ] […] To estimate the secondary structures, each spectrum between […] and 250 nm was analyzed by both the DichroWeb and BeStSel online programs using the CDSSTR method.
Figure 5 Far-UV CD spectra of wt (blue), Y143F (yellow), Y143A (green), L177A (red), and H191A (purple) ALKBH3 collected from 0.2 mg/mL protein at 11 °C in the absence of ligands. Each spectrum was measured three times, corrected for background, averaged, and expressed as mean residue ellipticity θ (deg·cm^2·dmol^−1).

B1: wt ALKBH3: wild-type human Fe(II)/2OG-dependent dioxygenase ALKBH3 with N-terminal His-tag, expressed in E. coli (protein, UniProt Q96Q83 1-286, looked up)
Alpha-ketoglutarate-dependent …: MEEKRRRARVQGAWAAPVKSQAIAQPATTAKSHLHQKPGQTWKNKEHHLSDREFVFKEPQQVVRRAPEPRVIDREGVYEISLSPTGVSRVCLYPGFVDVKEADWILEQLCQDVPWKQRTGIREDITYQQPRLTAWYGELPYTYSRITMEPNPHWHPVLRTLKNRIEENTGHTFNSLLCNLYRNEKDSVDWHSDDEPSLGRCPIIASLSFGATRTFEMRKKPPPEENGDYTYVERVKIPLDHGTLLIMEGATQADWQHRVPKEYHSREPRVNLTFRTVYPDPRGAPW
modifications: N-terminal His-tag
notes: wild-type human Fe(II)/2OG-dependent dioxygenase ALKBH3 with N-terminal His-tag, expressed in E. coli
For B1, the Kd ([1]; listed as wt) was 52 ± 7 µM, the Kd [1] was about 50 µM and the “α-helices, total” value ([2]; sum of Table 3 components) was 5.2%.

B2: Y143F ALKBH3: ALKBH3 mutant, Tyr143 replaced with Phe (protein, UniProt Q96Q83 1-286, looked up, variant Y143F)
Alpha-ketoglutarate-dependent …: MEEKRRRARVQGAWAAPVKSQAIAQPATTAKSHLHQKPGQTWKNKEHHLSDREFVFKEPQQVVRRAPEPRVIDREGVYEISLSPTGVSRVCLYPGFVDVKEADWILEQLCQDVPWKQRTGIREDITYQQPRLTAWYGELPYTFSRITMEPNPHWHPVLRTLKNRIEENTGHTFNSLLCNLYRNEKDSVDWHSDDEPSLGRCPIIASLSFGATRTFEMRKKPPPEENGDYTYVERVKIPLDHGTLLIMEGATQADWQHRVPKEYHSREPRVNLTFRTVYPDPRGAPW
B2 gave a Kd [1] of 52 ± 4 µM.

B3: Y143A ALKBH3: ALKBH3 mutant, Tyr143 replaced with Ala (protein, UniProt Q96Q83 1-286, looked up, variant Y143A)
Alpha-ketoglutarate-dependent …: MEEKRRRARVQGAWAAPVKSQAIAQPATTAKSHLHQKPGQTWKNKEHHLSDREFVFKEPQQVVRRAPEPRVIDREGVYEISLSPTGVSRVCLYPGFVDVKEADWILEQLCQDVPWKQRTGIREDITYQQPRLTAWYGELPYTASRITMEPNPHWHPVLRTLKNRIEENTGHTFNSLLCNLYRNEKDSVDWHSDDEPSLGRCPIIASLSFGATRTFEMRKKPPPEENGDYTYVERVKIPLDHGTLLIMEGATQADWQHRVPKEYHSREPRVNLTFRTVYPDPRGAPW
With B3 the Kd [1] was 53 ± 10 µM and the “increase in α-helical content over wt ALKBH3” value (shortened to “increase in α-helical content”) [2] was 3 fold.

B4: L177A ALKBH3: ALKBH3 mutant, Leu177 replaced with Ala (protein, UniProt Q96Q83 1-286, looked up, variant L177A)
Alpha-ketoglutarate-dependent …: MEEKRRRARVQGAWAAPVKSQAIAQPATTAKSHLHQKPGQTWKNKEHHLSDREFVFKEPQQVVRRAPEPRVIDREGVYEISLSPTGVSRVCLYPGFVDVKEADWILEQLCQDVPWKQRTGIREDITYQQPRLTAWYGELPYTYSRITMEPNPHWHPVLRTLKNRIEENTGHTFNSLACNLYRNEKDSVDWHSDDEPSLGRCPIIASLSFGATRTFEMRKKPPPEENGDYTYVERVKIPLDHGTLLIMEGATQADWQHRVPKEYHSREPRVNLTFRTVYPDPRGAPW
For B4, the Kd [1] was 67 ± 8 µM and the “increase in α-helical content” value [2] was 2.7 fold.

B5: H191A ALKBH3: ALKBH3 mutant, His191 replaced with Ala (protein, UniProt Q96Q83 1-286, looked up, variant H191A)
Alpha-ketoglutarate-dependent …: MEEKRRRARVQGAWAAPVKSQAIAQPATTAKSHLHQKPGQTWKNKEHHLSDREFVFKEPQQVVRRAPEPRVIDREGVYEISLSPTGVSRVCLYPGFVDVKEADWILEQLCQDVPWKQRTGIREDITYQQPRLTAWYGELPYTYSRITMEPNPHWHPVLRTLKNRIEENTGHTFNSLLCNLYRNEKDSVDWASDDEPSLGRCPIIASLSFGATRTFEMRKKPPPEENGDYTYVERVKIPLDHGTLLIMEGATQADWQHRVPKEYHSREPRVNLTFRTVYPDPRGAPW
For B5, the Kd [1] was 34 ± 2 µM and the “increase in α-helical content” value [2] was “up to 3.1 fold”.
